According to the DeepSol protein solubility set:

Assay: soluble on expression in E. coli; label from the status in PepcDB or PDB records

Sequence: EDLPTARVGVDYTSDSQVGGTLDLGRRFGDNNQFGARVNLVHREGEGAIDNDKRRTTLASLGLDYRGDRFRSSLDFGYQKKTFHGGTMGVNISGVDFIPALPDNSKNYSQKWGYSDIESEFGMAKAEYDLTDSWTVYSALGGQHSHEIGTYSAPKLLNKNGDATVGRLDTNRIIDAISGMGGVRGDFNTGAISHKVNLGYAAQVHTDATAWRMSARNPTTNIYDNHDVAMPDNAYFGGNYHDPLITSRSRTQGWLLSDTLGFFNDKVLFTAAARHQKVVVRNYSNATGLEDTSSRYTQSRWMPTFGLVYKPWEQLSLYANHTEALQPGSVAPTTAANAGQSTGIAHSKQDEVGVKIDYGTIGGSLALFEIKKPNAISDTAGNYGLDGEQRNRGVEMNVFGEPMLGLRLNASTVWLDAKQTKTAEGATDGKDAIGVANFYAVLGAEYDIKPVEGLTATARVNHSGSQYADAANTKKLDSYTTLDLGLRYRMRLNADQNEMIWRVGVTNVTNEKYWSGIDDTGTYLFEGDPRTVRVSMSYDF
- soluble on expression in E. coli: not soluble

Sequence: MRLDGKTALITGSARGIGRAFAEAYVREGARVAIADINLEAARATAAEIGPAACAIALDVTDQASIDRCVAELLDRWGSIDILVNNAALFDLAPIVEITRESYDRLFAINVSGTLFMMQAVARAMIAGGRGGKIINMASQAGRRGEALVGVYCATKAAVISLTQSAGLNLIRHGINVNAIAPGVVDGEHWDGVDAKFADYENLPRGEKKRQVGAAVPFGRMGRAEDLTGMAIFLATPEADYIVAQTYNVDGGNWMS
- soluble on expression in E. coli: soluble

Sequence: MSLTIPDSTPSDFSHEFFGSLDPQALAHPDSIKWQHYGEGVIPMWIADMDFPVAPPILRALEDRLTRGLGYPLGRDDRLIADLQTKWASQGLTDVPADGIHFTPSVVPGLYAGVHGLTEPGDRVVTMTPIYHPFHLAINDLGREVAAAPLREGDTRWEIDWDALERAAEGARLLMLCHPHNPCGRVWDADELARLRELVLAHDLYVISDELHADLRFTDAPFEAFAADPRVRDRTLTVTGPCKAFNTAGLGIGVMVTHDPELLARVQRRVAGLGGHPSALSFTMWRVALEDGGPWLARTVEYLRGNRDFMTAFLRERLPWVRFTVPEATYLAWLDLREHPEAGRIQEFLLEEAKVAVHNGPTFAPGEQGAAYQGFIRVNFATSRAILTEALERMARALDTRQEGHHHHHH
- soluble on expression in E. coli: soluble

Sequence: MAHHHHHHMTLIENLNSDKTFLENNQYTDEGVKVYEFIFGENYISSGGLEATKKILSDIELNENSKVLDIGSGLGGGCMYINEKYGAHTHGIDICSNIVNMANERVSGNNKIIFEANDILTKEFPENNFDLIYSRDAILHLSLENKNKLFQKCYKWLKPTGTLLITDYCATEKENWDDEFKEYVKQRKYTLITVEEYADILTACNFKNVVSKDLSDYWNQLLEVEHKYLHENKEEFLKLFSEKKFISLDDGWSRKIKDSKRKMQRWGYFKATKN
- soluble on expression in E. coli: soluble

Sequence: MGSDKIHHHHHHMNPPKRLLVIHRALAPYRIELLNTLSAAFDTHIYFEFASPIEQRFDAGELAKRVHFQSSVLPPAPKIPGLKNFRPYAASLVRSLRPDVVLCSEFNLLTLTLTAASRLFSPKTKLYVLCDDNEQMAEAELHYGRGLKHRMLSYVEGVILCDSRACDLYASRFATLDRERFVYLPIVQDEKVLRPLYEQVFGIGRDLRHALIPAGARMILYVGRLSEEKNLPALIDNLSTLPDDVHLVIVGDGPMQSALMNQVQATGHPERIIFAGKKEGAELYAYYTQADCLVLPSMRECFGSVVNEALIAGVPVVCSDIAGASCLVTESNGRTFSPMLPNALSQACNDLLGSIAPFCGDSLRPSLMPFTFERAIAPVLSLLSR
- soluble on expression in E. coli: not soluble

Sequence: MLDLNRKLAKLEEEGKKIKVALIGAGHMGNGMVSQMANMKGIEASIVVDINLELAHKAFTDAGIDEEIIDNVTNEKDAEIKLQEGKVLTCNDFLVACKTKSIDVVIDATGGIAIGAEIALNSILNKKHIVMLNAETDCVVGPILKKLADDAGVIFTGSAGDEPGAVMELFDFADAMGFEVRVIGKGKNNKLDLDCNPDTVREEAERKGASPHMIASFKEGTKTMVEMALMCNATGFVPDVRGGHGIEATVNEVPKKYALKSEGGVLDNYGVVDFVNGIAPGVFVVVAHKLKAVNDELKYLSMGDGPNYILYRPYHLCSLETPLSAAMAVLDHKATIVPKAGLVAEVMTIAKKDLKKGEFMDGYGAYTCYGTIEKYDVAKAMNAVPIGLISKKTKVVKDIKKGEVITYDMVEIEKDTTLYHLRQLQEKIFG
- soluble on expression in E. coli: not soluble

Sequence: MTHRSSRLEVGPVARGDVATIEHAELPPGWVLTTSGRISGVTEPGELSVHYPFPIADLVALDDALTYSSRACQVRFAIYLGDLGRDTAARAREILGKVPTPDNAVLLAVSPNQCAIEVVYGSQVRGRGAESAAPLGVAAASSAFEQGELVDGLISAIRVLSAGIAPG
- soluble on expression in E. coli: soluble

Sequence: KMPLTIYSADGEVIGMYGEQRREFTKIGDFPEVLRNAVIAAEDKRFYRHWGVDVWGVARAAVGNVVSGSVQSGASTITQQVAKNFYLSSEKTFTRKFNEVLLAYKIEQSLSKDKILELYFNQIYLGQRAYGFASAAQIYFNKNVRDLTLAEAAMLAGLPKAPSAY
- soluble on expression in E. coli: not soluble

Sequence: MGSDKIHHHHHHMDKAFPSGLAVGIFDHLDEDGPDIARQYEDRLMLAEACDHLGFYAYHLAEHHCTPHGRGPSPNLFLSSVAQRTRRLRVGPLVMLLALYHPLRAFEEICMLDQLSGGRLELGIGRGSLPIELGYFGIGSDAAPNHYAEASEILINALKGGTLSYQGRHFELNSVPLTLRTHQRPHPPTWIATNRPESAVWAAANGVNIACVGPSSSVRRITDAFRREHTSEADDQTPFLGLLRMVVIGRSETDARSLAAPAYERWLKSFKFLYDLNGMPTPPNLPLTFDAAIEKELCVVGTAASAGHALLEQLEAAGANYLLCQPAFGNLSLDASLYTATAIQSAIMARVG
- soluble on expression in E. coli: not soluble

Sequence: MGLLIDGVWHDQWYDTKSTGGSFKRQDAKFRNWITHDGSAGPSGTGGFTPDSGRYHLYISHACPWAHRTMIFRTLKGLEDHITISAVHPDMLGEGWTFEPDDNGATGDTLYNSAFARDIYTRADPRFTGRVTVPILWDKQRETIVSNESSEIIRMFNAAFNGLTGNSDDYWPEPLRDAIAPVNERIYDTFNNGVYKAGFATTQQAYDAAIVPLFDTLDWLEERLSHNRYLMGDQLTEADWRLFTTLVRFDPVYHLHFKCNRKRIVDYPNLWGYTRELYQTPGVADTVNFDHIVRHYHYSHETINPNRIIPINPVLDFHRPHGRGLEHHHHHH
- soluble on expression in E. coli: soluble

Sequence: MGSDKIHHHHHHMKRKTLPKLLYADAKGNIFDHPHLCMAGMSGSEAVLPESVELIPLPEGSRLFTIPDTPPVAWDEQQRKFVTVASVREGRRPMPVQAVSAFMAPGYVRLLLPACDYSRKKVHLPLWSYTAVGWDEERDCFVVAASRVDTNQNWNPCNYDDRKLDPLVRQRLAEMPHNRLLEQLARCAVDYHCFAAKNLFFRRWEAPLPTSPACNSRCLGCISLQPSDCCPANHERIGFVPTPEEIVELALPHLLEAPEPIVSYGQGCEGDPIMQADTVAEATRRLKAATSRGTVNFNSNGSFPDRIAMLCDAGMDSMRFSMNSVREEVYDRYYRPVGYRFAEVKESVRLAGERGLFTMINYLVSPGVSDSADEVEALLRFIGETGVKMIQMRNLSIDPDFYNKRMGATGRGIGMYRMLERVKREFPHIQYGYYNRTRENFFPAGYEKGWPIR
- soluble on expression in E. coli: not soluble

Sequence: MESTAPNAPTEEAPEPTPFVFEFKNNHIKLIELHVYTDSMEILLIGNDGNRYEVEIQEYPGEACIEQISLNRVLVQKKECTSMYPSAPIAIVTLYSILRQPGVKVDCFYYRILNQYFVRDKNNKTEHAKWDERSASLTKMLKAMMRALMKKLEVEVFKIVYNGKEEEVMCLLPYFEPGYLRRICLFNPLYVSPTVIDNIITTEQWKQAKELNTMTGEPVAFPVESHAHFESLRIRIPELKQIDVILLVLKYLNQKTPKDNEIGVQNVSELFDFMWGSMGIPHENDPETIRYTWKSGTYNLYAEVTKNGVRFTSETRQA
- soluble on expression in E. coli: not soluble

Sequence: MGSDKIHHHHHHMLDCHEDTLVILAKNIAVEMHYHHAIQLVLSLDKPYDAVLDHQPIESVKGFLIDSDIPHACQSADSTVLVISVDASSSKGRLLKSHLLKRTFILIDELFSAEAIDEFLNFYWRCCDTSQHEFDPLYFLHKLSHEQRNITPFDARLLIAIDFINQDISQIIKVIDIARHISLSESRLRHLFTEQVGIPLTKYVLWVRMKVALREMLKPGVTLSDAAHQAGFTDHAHFTRTFRRMFGVSPSLLLKYGQFLQIFGL
- soluble on expression in E. coli: not soluble

Sequence: MHRELLDALSVITEEEQRILDEQRGIDPQLYTEKKELIVDSEKLLKKGKLIQVRPHTRFVNFPKHKHNYVEVIYMCQGTTTHILNGSKVILEAGDLLFLNQNAEQEILPAGEQDIAVNFIVLPEFFDTAFSMMDMEEENALKEFLVGALCGKNDNTSYLYFHVAEILPIQNLVENMVWTIFYDQPNKRRCNQITMGLLLLQLLNHVDRMETGTAAFDRELTG
- soluble on expression in E. coli: not soluble

Sequence: MTHILFDSRRFLQLGAFASLSTALAGAARYVTSTSNNEPADNTPLTIGYVPIAGSAPIAIADALGLFKKHGVNVTLKKYSGWSDLWTAYATEQLDVAHMLSPMTVAINAGVTNASRPTELSFTQNTNGQAITLASKHYGSVNSAADLKGMVLGIPFEYSVHALLLRDYLVSNAVDPIADLELRLLRPADMVAQLTVEGIDGFIGPGPFNERAISNGSGRIWLLTKQLWDKHPCCAVAMAKEWKAEHPTAAQGVLNALEEASAILSNPAQFDSSARTLSQEKYLNQPATLLDGPS
- soluble on expression in E. coli: not soluble

Sequence: MNIAVSKPPLTIRLCGPRGFCAGVDRAIQIVVLALKAYGAPVYVRHEIVHNRYVVEGLEAKGAIFVEELHEIPAEHREQPVVFSAHGVPKSVPEDAQARNLFYLDATCPLVSKVHKQAMRHQRLGRHVVLIGHAGHPEVIGTMGQLPEGTVSLVETVEDAGVYEPVDRENLGFVTQTTLSVDDTAGVIARLQERFPAIQAPAADSICYATTNRQDAVKQAAPGCDLFIVVGAPNSSNSKRLVEVALRAGAKHSVLVQRASEIDWNEIGDIRTVGLSAGASAPEVIVDEIIEAFKARFDTTLDLAVTVEETEHFLVNRELRSIELTTDDMAFVNGNASNALPPKATAGILEHHHHHH
- soluble on expression in E. coli: not soluble

Sequence: MGSDKIHHHHHHMTKKLPIGIQTFREIREESYYYVDKTSFALKLAMEGKYYFLSRPRRFGKSLFLDTLAELFAGNEALFHGLYCHDRWDWSVRYPIIRLSFAEGWLESRAQLDKRICWLLEQNQQRLGVTCKQESDIPGSFAELLQNAEAKYGQRCVVLVDEYDKPILDNITEPEIARAMREGLRNLYSVIKGQDAHIRFAFLTGVSKFSKVSIFSGLNNLNDITIDADYSAICGYTDEDVDTVFAPELPGLDRQQIQDWYNGYNWTGQPVYNPFDLLLLFDKREFRAYWFETGTPTFLVDWLMQRGYFTPSLSRQYSSLELLSAFDVDHIEPEALLFQTGYTTLQGVEEYLPGQRIYWLGYPNKEVQISLNNALLPALGIEGQKVLTHRIRLLELLRANNFAGLQQLFTSFFASIPHDWYRNNPIAQYEGYYASVFYSHFAALGLDIVVEDTTHHGRIDMAVTFNANVYLFEFKVVELVPEGHALEQLKTKGYAEKYKIRNEPIYLIGAEFSKDSRSVVAFDVELFA
- soluble on expression in E. coli: not soluble

Sequence: MGSDKIHHHHHHMRLPPLKALPVFEAAARLNSFSAASEELAITQSAVSHQIKQLETYLGERLFWRSGRRVTLTDEGRQYFDAIGSALLQIERASEQLLGHEESRLRLSVFSSFAVRWLVPRLPDLQRLHPQIDLALEMSSENPVLSDRVADCFITIHRDSRAYSYDLLYEERLFPVCSQDYWQRMRRELGRDVEPERRDEQPVSPGEMAGFPLLSTHSIFDRPAGDWEAWYSAAGELMPTGTRVQHFSHMLLALEAARFHQGIALTNDYMLSTRKDSEDFVRLPTHSVVTGDKFYFAWKTSRRRERGIQTLRRWLVDEAIRGGLRGE
- soluble on expression in E. coli: not soluble
